{"source": "the nanobody polyreactivity screen of Harvey et al. (2022)"}
{"experiment": "yeast display, Sf9 membrane polyspecificity reagent, FACS + sequencing; frameworks hold sequencing errors", "in_short": "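Galactose-induced (36–48 hours) yeast carrying a synthetic nanobody display library were exposed to 10% biotinylated, detergent-solubilized Sf9 membrane reagent at 4 °C for 1 hour. FACS followed streptavidin microbead enrichment, using low and high (top ~1%) gates for expression (anti-HA) and reagent binding (streptavidin). Colony PCR, MiSeq 2 × 250 sequencing and CDR-length filtering followed. Labels for polyreactivity reflect the gate of origin.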"}
{"sequence": "QVQLVESGGGLVQAGGSLRLSCAASGFTFTYYALGWYRQAPGKERQLVAAISSRGGRTYYADSVKVRFRISRDNAKNTVYLLMKSLKPEDTAVYYCAARVYKGWPTHYDYLGQGTQVTVSS", "polyreactivity (PSR sort gate)": "high polyreactivity"}
{"sequence": "QVQLVESGGGLVQAGGSLRLSCAASGFTFTYYAMGWYRQAPGKERELVAAISWNGGSTYYADSVKGRFTISRDNAKNTVYLQMNSLKPEDTAVYYCNAYDYQYFYGYEYDYWGQGTQVTVSS", "polyreactivity (PSR sort gate)": "high polyreactivity"}
{"sequence": "QVQLVESGGGLVQAGGSLRLSCAASGFTFTYYAMGWYRQAPGKERELVAAITKSGGSTYYADSVKGRFTISRDNAKNTVYLQMNSLKPEDTAVYYCAADTRYGRERYYWGQGTQVTVSS", "polyreactivity (PSR sort gate)": "high polyreactivity"}
{"sequence": "QVQLVESGGGLVQAGGSLRLSCAASGFTFTYYAMGWYRQAPGKERELVAVITRSGNTYYADSVKGRFTISRDNAKNTVYLQMNSLKPEDTAVYYCATVGQRLHLGYWGQGTQVTVSS", "polyreactivity (PSR sort gate)": "high polyreactivity"}
{"sequence": "QVQLVESGGGLVQAGGSLRLSCAASGFTFVGNAMGWYRQAPGLERELVAAITRGGSSYYADSVKGRFTISRDNAKKTVYLQMNSLKPEDTAVYYCNAELPVHWSWYDYWGQGTQVTVSS", "polyreactivity (PSR sort gate)": "low polyreactivity"}
{"sequence": "QVQLVESGGGLVQAGGSLRLSCAASGFTFVGYAMGWYRQAPGKERELVAAISSSGVSTYYADSVKGRFTISRDNAKNTVYLQMNSLKPEDTAVYYCNRVSVYRSSHLLWGGYWGQGTQVTVSS", "polyreactivity (PSR sort gate)": "low polyreactivity"}
{"sequence": "QVQLVESGGGLVQAGGSLRLSCAASGFTFVINDMGWYRQAPGKERELVADITSGGDKYYADSVKGRFTISRDNAKNTVYLQMISLKPEDTAVYYCARDNERDYYTYPYDYWGQGTQVTVSS", "polyreactivity (PSR sort gate)": "low polyreactivity"}
{"sequence": "QVQLVESGGGLVQAGGSLRLSCAASGFTFVIYAMGWYRQAPGTERELVATITGSGGSTYYADSVKWRITISRDNAKNTVYLQMNSLKPEDTAVYYCAARRRYQRYSRYDYWGLGTQVTVSS", "polyreactivity (PSR sort gate)": "high polyreactivity"}
{"sequence": "QVQLVESGGGLVQAGGSLRLSCAASGFTFVKYAMGWYRQAPGKERELVAVISRRGGSTYYADSVKGRFTISRDNAKNTVYLQMNSLKPEDTAVYYCAAKVALPRTQEWEYGYWGQGTQVTVSS", "polyreactivity (PSR sort gate)": "high polyreactivity"}
{"sequence": "QVQLVESGGGLVQAGGSLRLSCAASGFTFVKYAMGWYRQAPGKVRELVASISSGGSTYYADSVKGRFTISRDNAKNTVYLQMNSLKPEDTAVYYCNKSPGYGRYSRRYDSWGQGTQVTVSS", "polyreactivity (PSR sort gate)": "high polyreactivity"}
{"sequence": "QVQLVESGGGLVQAGGSLRLSCAASGFTFVPYAMGWYRQAPGKEREFVADITSSGTTNYADSVKGRFTISRDNAKNTVYLQMNSLKPEDTAVYYCAADPDSGQVPFDYWGQGTQVTVSS", "polyreactivity (PSR sort gate)": "low polyreactivity"}
{"sequence": "QVQLVESGGGLVQAGGSLRLSCAASGFTFVQYAMGWYRPAPGKERELVARISSSGGSTYYADSVKGRFTISRDNAKNTVYLQMTSLKPEDTAVYYCAARRSHYYYVARFDYWGQGTQVTVSS", "polyreactivity (PSR sort gate)": "high polyreactivity"}
{"sequence": "QVQLVESGGGLVQAGGSLRLSCAASGFTFVQYAMGWYRPAPGKERELVATISKSGGITYYADSVKGRFTISRDTAKNTVYLHMNSVKPEDTAVYYCAAAWYYSSRGFHATWGHDYWGQGTQVTVSS", "polyreactivity (PSR sort gate)": "low polyreactivity"}
{"sequence": "QVQLVESGGGLVQAGGSLRLSCAASGFTFVRNAMGWYRQAPGKERELVAAISDRGGTYYADSVKGRFTISRDNAKNTVYLQMNSLKPEDTAVYYCAAKYWYPYQYSHGSFYYWGQVTQVTVSS", "polyreactivity (PSR sort gate)": "high polyreactivity"}
{"sequence": "QVQLVESGGGLVQAGGSLRLSCAASGFTFVRYAMGWDSQAPGTERELVAAMSRSGGSTYYADSVKGRFTISRDNAKNTVYLQMNSLKPEDTAVYYCAADIKGRTGDAYDYWGQGTQVTVSS", "polyreactivity (PSR sort gate)": "low polyreactivity"}
{"sequence": "QVQLVESGGGLVQAGGSLRLSCAASGFTFVRYAMGWYRQAPGKERELVAAITRSGGSTYYADSVKGRFTISRDNAKNTVYLQMNSLKPEDTAVYYCNARRSRSRYDYWGQGTQVTVSS", "polyreactivity (PSR sort gate)": "high polyreactivity"}
{"sequence": "QVQLVESGGGLVQAGGSLRLSCAASGFTFVRYAMRWYRQAPGTERELVAAISYSGGRTYYADSVKGRFTISRDTAKNTVYLQMNSLKPEDTAVYYCAADAFRGFYWGQGTQVTVSS", "polyreactivity (PSR sort gate)": "high polyreactivity"}
{"sequence": "QVQLVESGGGLVQAGGSLRLSCAASGFTFVSNAMGWYRQAPGKERELVADITSDGSTNYADSVKGRFTISRDNAKNTVYLQMNSLKPEDTAVYYCATDQRSHTWVNQFDYWGQGTQVTVSS", "polyreactivity (PSR sort gate)": "low polyreactivity"}
{"sequence": "QVQLVESGGGLVQAGGSLRLSCAASGFTFVSYAMGWYRQAPGKERELVAAISSRVGSTYYADSVKGRFTISRDNAKNTVYLQMNSLKPEDTAVYYCAASFTDRVTLDYFRSYAFEYWGQGTQVTVSS", "polyreactivity (PSR sort gate)": "low polyreactivity"}
{"sequence": "QVQLVESGGGLVQAGGSLRLSCAASGFTFVSYAMGWYRQATGKERELVAVIDNSDGDTYYADSVKGRFTISRDNAKNTVYLQMNSLKPEDTAVYYCAADAVIEWTDWYSAWWYYYWGQGTQVTVSS", "polyreactivity (PSR sort gate)": "low polyreactivity"}
{"sequence": "QVQLVESGGGLVQAGGSLRLSCAASGFTFVTYAMGWYRQAPGKERELVAAISSSGRTYYADSVKGRFTISRDNAKNTVYLQMNSLKPEDTAVYYCAVQGAWRSFYYWGQGTQVTVSS", "polyreactivity (PSR sort gate)": "high polyreactivity"}
{"sequence": "QVQLVESGGGLVQAGGSLRLSCAASGFTFVWYAMGWYRPAPGKERELVAAISRRGTRTYYADSVKGRFTISRDNAKNTVYLQMNSLKPEDTAVYYCAASNGYQAVTYDYWGQGTQVTVSS", "polyreactivity (PSR sort gate)": "high polyreactivity"}
{"sequence": "QVQLVESGGGLVQAGGSLRLSCAASGFTFVWYVMGWYRQAPGKEREFVAAITSTGGNTNYADSVKGRFTISRDNAKNTVYLEMNSLKPEDTAVYYCAKRYGFPPGYYYWGQGTQVTVSS", "polyreactivity (PSR sort gate)": "low polyreactivity"}
{"sequence": "QVQLVESGGGLVQAGGSLRLSCAASGFTFVYNALGWYRQAPGKERELVAAISGSGGSTYYADSVKGRFTISRDNAKNTVYLQMNSLKPEDTSVYYCNAVPSWRWEYDHWGQGTQVTVSS", "polyreactivity (PSR sort gate)": "high polyreactivity"}
{"sequence": "QVQLVESGGGLVQAGGSLRLSCAASGFTFVYNAMGWYRQAPGKERELVAAINSGGRTNYADSVKGRFTISRDNAKNTVYLQMNSLKPEDTAVYYCAAEVTSFSFGGDATEYYWGQGTQVTVSS", "polyreactivity (PSR sort gate)": "low polyreactivity"}
{"sequence": "QVQLVESGGGLVQAGGSLRLSCAASGFTFVYNAMGWYRQAPGKERELVAAISKSGDRTYYADSVKGRFTISRDYAKNTVYLQMNSLKPEDTAVYYCNAKVVHGYQRFNYWGQGTEVTVSS", "polyreactivity (PSR sort gate)": "high polyreactivity"}
{"sequence": "QVQLVESGGGLVQAGGSLRLSCAASGFTFVYYAMGWYRPAPGKERELVAAISRGGSTYYADSVKGRFTISRDNAKNTVYLQMNSLKPEDTAVYYCNAKKSGLYVSYPAYDYWGQGTQVTVSS", "polyreactivity (PSR sort gate)": "low polyreactivity"}
{"sequence": "QVQLVESGGGLVQAGGSLRLSCAASGFTFVYYAMGWYRQAPGKERELVAGISSSAGSTYYADSVKGRFTISRDNAKNTVYLQMNSLKPEDTAVYYCNAEYYWWPFDYWGQGTQVTVSS", "polyreactivity (PSR sort gate)": "high polyreactivity"}
{"sequence": "QVQLVESGGGLVQAGGSLRLSCAASGFTFVYYAMGWYRQAPGKEREMVAGISSSDTTSYADSVKGRFTISRDNAKNTVYLQMNSLKPEDTEVYYCATRYWRRYPSTWSYPYYYWGQGTQVTVSS", "polyreactivity (PSR sort gate)": "high polyreactivity"}
{"sequence": "QVQLVESGGGLVQAGGSLRLSCAASGFTFVYYAMGWYRQAPGTERELVAAISQSGSSTYYADSVKGRFTISRDNAKNTVYLQMNTLKPEDTAVYYCAAQEFQKRLGGSWWRYDYWGQGTQVTVSS", "polyreactivity (PSR sort gate)": "high polyreactivity"}
{"sequence": "QVQLVESGGGLVQAGGSLRLSCAASGFTFVYYVMGWYRQAPGKERELVAAINAGGGSTYYADSVKGRFTISRDNAKNTVYLQMNSLKPEDTAVYYCYARVRVRLGRNWSSYYYWGQGTQVNVSS", "polyreactivity (PSR sort gate)": "high polyreactivity"}
{"sequence": "QVQLVESGGGLVQAGGSLRLSCAASGFTFWEYAMGWYRQAPGKERELVAAISRGTSTYYADSVKGRFTISRDNAKNTVYLQMNSLKPEDTAVYYCAAAPSYYPARHGYWGQGTQVTVSS", "polyreactivity (PSR sort gate)": "low polyreactivity"}
{"sequence": "QVQLVESGGGLVQAGGSLRLSCAASGFTFWLYAMGWYRQAPGKERELVAAISRNSVSTYYADSVKGRFTISRDNAKNTVYLQMNSLKPEDTAVYYCAVDQYATDDYWGQGTQVTVSS", "polyreactivity (PSR sort gate)": "high polyreactivity"}
{"sequence": "QVQLVESGGGLVQAGGSLRLSCAASGFTFWRNAMGWYRQAPGKERELVAAISSGTGRTYYADSVKGRFTISRDNAKNTVYLQMNSLKPEDTAVYYCAKVNGRTSYGTSTRDYWGQGTQVTVSS", "polyreactivity (PSR sort gate)": "low polyreactivity"}
{"sequence": "QVQLVESGGGLVQAGGSLRLSCAASGFTFWRNTMGWYRQAPGKEREFVAGISGSGGSTYYADSVKGRFTISRDNAKNTVYLQMNSLKPEDTAVYYCAAVYRFSRTFYTPGYDYWGQGTQVTVSS", "polyreactivity (PSR sort gate)": "high polyreactivity"}
{"sequence": "QVQLVESGGGLVQAGGSLRLSCAASGFTFWRYAMGWYRQAPGKERELVAVITRRGGSTYYADSVKGRFTISRDNAKNTVYLQMNSLKPEDTAVYYCAAGPVSQQHSPGPHDYWGQGTQVTVSS", "polyreactivity (PSR sort gate)": "high polyreactivity"}
{"sequence": "QVQLVESGGGLVQAGGSLRLSCAASGFTFWSYAMGWYRQAPGKERELVAGITIDGNTYYADSVKGRFTISRDNAKNTVYLQMNSLKPEDTAVYYCATPVYRSTYEYDYWGQGTQVTVSS", "polyreactivity (PSR sort gate)": "low polyreactivity"}
{"sequence": "QVQLVESGGGLVQAGGSLRLSCAASGFTFWSYGMGWYRQAPGKERELVAAISWSGGRTYYADSVKGRFTISRDNAKNTVYLQMNSLKPDDTAVYYCAAQPYYYFDEYTQYDYWGQGTQVTVSS", "polyreactivity (PSR sort gate)": "high polyreactivity"}
{"sequence": "QVQLVESGGGLVQAGGSLRLSCAASGFTFWTYAMGWYRQAPGKERELVAAISRSAGRTYYADSVKGRFTISRDNAKNTVYLQMNSLKPEDTAVYYCNARAGYVRYGYWGQGTQVTVSS", "polyreactivity (PSR sort gate)": "high polyreactivity"}
{"sequence": "QVQLVESGGGLVQAGGSLRLSCAASGFTFWWYAMGWYRQAPGKERELVASIDTRGGTYYADSVKGRFTISRDNAKNTVYLQMNSLKPEDSAVYYCNADGAYGNYRGGYWGQGTEVTVSS", "polyreactivity (PSR sort gate)": "high polyreactivity"}
{"sequence": "QVQLVESGGGLVQAGGSLRLSCAASGFTFWWYAMGWYRQAPGKERQLVAGITSGASTYYADSVKGRYTISRDNAKNTVYLQMNSLKPEDTAVYYCAADWLGWYQPYDYWGQGTQVTVSS", "polyreactivity (PSR sort gate)": "low polyreactivity"}
{"sequence": "QVQLVESGGGLVQAGGSLRLSCAASGFTFWYYAMGWYRQAPGKERELVAAISSNGASTYYADSVKGRFTISRDNAKNTVYLQMNSLKPEDTAVYYCNAYYDTWDSAYDYDYWGQGTQVTVSS", "polyreactivity (PSR sort gate)": "low polyreactivity"}
{"sequence": "QVQLVESGGGLVQAGGSLRLSCAASGFTFWYYAMGWYRQAPGKERELVAAITEDGDSTYYADSVKGRFTISRDNAKNTVYLQMNSLKPEDTAVYYCNTDLTFNGTSGDYDYWGQGSQVTVSS", "polyreactivity (PSR sort gate)": "low polyreactivity"}
